This passage reports Kd, koff and kon results from article PMC4167697.

Experiment [1] has as its target protein G B1. Nature of the experiment: BLI; kinetic titration series; GB1 amine-coupled on AR2G sensors, IgG as analyte at 0.03125-0.5 µM in turn on one sensor; PBS with 0.05% Polysorbat 20, 25°C, 1000 rpm; each sensor pair fitted separately, 1:1 kinetic titration series model with RI-term. On the technique in general: Biolayer interferometry detects binding as a change in optical thickness at a sensor tip.

Experiment [2] has as its target protein G B1. The experiment is described as above. This is another data set of the same source.
Experiment [3] concerns the target protein G B1. The experiment is described as above. The source holds these as a separate data set.
Experiment [4] deals with protein G B1. Nature of the experiment: BLI; parallel sensor kinetics, fitted without RI term (Figure S3A); GB1 on AR2G sensors, IgG as analyte.
The target in experiment [5] is protein G B1. The experiment can be described thus: BLI; parallel sensor kinetics; GB1 amine-coupled on AR2G sensors, IgG as analyte at 0.03125-0.5 µM on five sensors in parallel; PBS with 0.05% Polysorbat 20, 25°C, 1000 rpm; global 1:1 fit with RI-term.
Experiment [6] deals with protein G B1. Nature of the experiment: BLI; kinetic titration series; GB1 amine-coupled on AR2G sensors, IgG as analyte at 0.03125-0.5 µM in turn on one sensor; PBS with 0.05% Polysorbat 20, 25°C, 1000 rpm; each sensor pair fitted separately, 1:1 kinetic titration series model with RI-term. This is another data set of the same source.
Experiment [7] addresses protein G B1. The experiment can be described thus: BLI; kinetic titration series, fitted without RI term (Figure S3B); GB1 on AR2G sensors, IgG as analyte.
Experiment [8] addresses protein G B1. Nature of the experiment: BLI; kinetic titration series; GB1 amine-coupled on AR2G sensors, IgG as analyte at 0.03125-0.5 µM in turn on one sensor; PBS with 0.05% Polysorbat 20, 25°C, 1000 rpm; each sensor pair fitted separately, 1:1 kinetic titration series model with RI-term. This is another data set of the same source.
In experiment [9] the target is protein G B1. The experiment is described as above. This is another data set of the same source.
Experiment [10] addresses protein G B1. The experiment is described as above. This is another data set of the same source.
Experiment [11] deals with protein G B1. Nature of the experiment: BLI; parallel sensor kinetics; GB1 amine-coupled on AR2G sensors, IgG as analyte at 0.03125-0.5 µM, one sensor for each concentration; PBS with 0.05% Polysorbat 20, 25°C, 1000 rpm; global 1:1 binding model with RI-term; two measurements (#1, #2).
Experiment [12] concerns the target protein G B1. Nature of the experiment: BLI; kinetic titration series; GB1 amine-coupled on AR2G sensors, IgG as analyte at 0.03125-0.5 µM in sequence on one sensor; PBS with 0.05% Polysorbat 20, 25°C, 1000 rpm; 1:1 kinetic titration series model with RI-term; mean of 7 replicates.

Where “and” joins values, the source holds several entries; their conditions need not be identical. Equal entries are not always repeated.

Usually Kd stands for the constant that tells how readily two partners part at equilibrium. In general, koff refers to a measure of how fast the partners let go of each other. Lower therefore signals a long-lived complex. As a reminder, the kon is the second-order rate constant of association. Lower therefore signals slower complex formation. With “rabbit IgG (ID: ABIN376828; Antibodies-Online) (antibody)”, the Kd stood at 124 nM in the experiment with protein G B1 [1]; 164 nM with protein G B1 [2]; 166 nM with protein G B1 [3]; 186 nM with protein G B1 [4]; 50.4 nM with protein G B1 [6]; 107 nM with protein G B1 [7]. Also, the figures for the Kd in the experiment with protein G B1 [8], with protein G B1 [9] and in the experiment with protein G B1 [10] were 266 nM, 87.7 nM and 254 nM, respectively. Also, the koff with protein G B1 [1] is 0.00551 s⁻¹; with protein G B1 [2], 0.00485 s⁻¹; in the experiment with protein G B1 [3], 0.00476 s⁻¹; with protein G B1 [4], 0.00317 s⁻¹; with protein G B1 [5] it was 0.00702 s⁻¹; with protein G B1 [6], 0.0016 s⁻¹. Also, the koff amounted to 0.00185 s⁻¹ in the experiment with protein G B1 [7], 0.00606 s⁻¹ in the experiment with protein G B1 [8], 0.00601 s⁻¹ in the experiment with protein G B1 [9] and 0.00467 s⁻¹ with protein G B1 [10]. In addition, the kon was 44300 M⁻¹ s⁻¹ in the experiment with protein G B1 [1]; 29700 M⁻¹ s⁻¹ with protein G B1 [2]; 28700 M⁻¹ s⁻¹ with protein G B1 [3]; 17000 M⁻¹ s⁻¹ with protein G B1 [4]; 45100 M⁻¹ s⁻¹ in the experiment with protein G B1 [5]; 31800 M⁻¹ s⁻¹ in the experiment with protein G B1 [6]. The kon turned out to be 17300 M⁻¹ s⁻¹ with protein G B1 [7], 22800 M⁻¹ s⁻¹ in the experiment with protein G B1 [8], 68500 M⁻¹ s⁻¹ with protein G B1 [9] and 18400 M⁻¹ s⁻¹ with protein G B1 [10].

Consider rabbit immunoglobulin G (antibody), for which the Kd in the experiment with protein G B1 [11] was 156 nM and 253 nM; with protein G B1 [12], 159 nM.
